Measured values from US20100196267A1.
One block for each substance: values may come before it.

Tests used:
[1] = biological target: Fcγ receptors on effector cells; assay: cell-based or functional assay
[2] = biological target: CD74 on dog lymphoma cells (dog); assay: flow cytometry on dog lymphoma aspirate, murine MAbs (none 3.85)
CD74 (human) [3] = biological target: CD74 (human) (UniProt P04233); assay: indirect flow cytometry on Namalwa cells, FITC-GAM 2nd Ab (none 2.91)
[4] = biological target: CD74 on dog lymphoma cells (dog); assay: flow cytometry on dog lymphoma aspirate, murine MAbs (none 3.37)
HLA-DR (human) [5] = assay: indirect flow cytometry on Namalwa cells, FITC-GAM 2nd Ab (none 2.91); control antibody
[6] = biological target: antigen on dog lymphoma cells recognised by L243 and hL243 (dog); assay: flow cytometry on dog lymphoma aspirate, murine MAbs (none 3.85); control antibody
[7] = biological target: antigen on dog lymphoma cells recognised by L243 and hL243 (dog); assay: flow cytometry on dog lymphoma aspirate, murine MAbs (none 3.37); control antibody
HLA-DR (human) [8] = assay: indirect flow cytometry on Namalwa cells, FITC-GAM 2nd Ab (none 2.91); irrelevant antibody
HLA-DR (human) [9] = assay: indirect flow cytometry on Namalwa cells, FITC-GAH 2nd Ab (none 2.52); irrelevant antibody
[10] = biological target: T1, CD20 on dog lymphoma cells (dog) (UniProt Q3C2E2); assay: flow cytometry on dog lymphoma aspirate, murine MAbs (none 3.85)
T1 sequence (looked up): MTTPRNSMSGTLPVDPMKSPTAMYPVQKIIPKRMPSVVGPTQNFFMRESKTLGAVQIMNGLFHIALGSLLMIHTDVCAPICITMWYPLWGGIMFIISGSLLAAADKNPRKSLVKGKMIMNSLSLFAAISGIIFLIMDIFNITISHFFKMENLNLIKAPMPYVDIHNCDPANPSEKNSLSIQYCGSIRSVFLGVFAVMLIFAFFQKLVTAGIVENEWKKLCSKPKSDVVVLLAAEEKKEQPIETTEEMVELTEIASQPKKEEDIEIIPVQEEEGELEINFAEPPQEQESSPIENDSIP

CD20 (human) = biological target: T2, CD20 (human) (UniProt P11836); assay: indirect flow cytometry on Namalwa cells, FITC-GAM 2nd Ab (none 2.91)
T2 sequence (looked up): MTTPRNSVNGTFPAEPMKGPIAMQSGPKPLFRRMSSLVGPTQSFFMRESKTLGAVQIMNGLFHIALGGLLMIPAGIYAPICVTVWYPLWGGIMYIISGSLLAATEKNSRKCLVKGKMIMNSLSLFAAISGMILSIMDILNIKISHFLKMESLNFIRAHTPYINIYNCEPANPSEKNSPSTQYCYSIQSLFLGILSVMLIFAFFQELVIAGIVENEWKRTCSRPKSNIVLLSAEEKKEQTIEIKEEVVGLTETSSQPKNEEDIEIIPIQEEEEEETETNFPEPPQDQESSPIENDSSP

[11] = biological target: T1, CD20 on dog lymphoma cells (dog); assay: flow cytometry on dog lymphoma aspirate, murine MAbs (none 3.37)
[12] = biological target: CD22 on dog lymphoma cells (dog); assay: flow cytometry on dog lymphoma aspirate, murine MAbs (none 3.85)
CD22 (human) = CD22 (human) (UniProt P20273); assay: indirect flow cytometry on Namalwa cells, FITC-GAM 2nd Ab (none 2.91)
[13] = biological target: CD22 on dog lymphoma cells (dog); assay: flow cytometry on dog lymphoma aspirate, murine MAbs (none 3.37)
CD74 (human) [14] = biological target: CD74 (human) (UniProt P04233); assay: indirect flow cytometry, FITC-GAH Fc 2nd Ab, Namalwa cells (none 2.6)
CD74 (human) [15] = biological target: CD74 (human) (UniProt P04233); assay: indirect flow cytometry, FITC-GAH Fc 2nd Ab, SU-DHL-6 cells (none 4.6)
CD74 (human) [16] = biological target: CD74 (human) (UniProt P04233); assay: indirect FACS, FITC-GAH Fc 2nd Ab, Namalwa cells (none 2.5); number split over two cells
CD74 (human) [17] = biological target: CD74 (human) (UniProt P04233); assay: indirect FACS, FITC-GAH Fc 2nd Ab, SU-DHL-6 cells (none 4.6); number split over two cells
CD74 (human) [18] = biological target: CD74 (human) (UniProt P04233); assay: indirect flow cytometry, FITC-GAH Fc 2nd Ab, RL cells (none 2.4)
[19] = biological target: CD74 on dog lymphoma cells (dog); assay: flow cytometry on dog lymphoma aspirate, humanized MAbs (none 3.24)
CD74 (human) [20] = biological target: CD74 (human) (UniProt P04233); assay: indirect FACS, FITC-GAH Fc 2nd Ab, Daudi cells (none 3.1); number split over two cells
CD74 (human) [21] = biological target: CD74 (human) (UniProt P04233); assay: indirect flow cytometry, FITC-GAH Fc 2nd Ab, Daudi cells (none 3.2)
CD74 (human) [22] = biological target: CD74 (human) (UniProt P04233); assay: indirect FACS, FITC-GAH Fc 2nd Ab, WSU-FSCCL cells (none 2.6); number split over two cells
CD74 (human) [23] = biological target: CD74 (human) (UniProt P04233); assay: indirect flow cytometry, FITC-GAH Fc 2nd Ab, WSU-FSCCL cells (none 2.7)
CD74 (human) [24] = biological target: CD74 (human) (UniProt P04233); assay: indirect flow cytometry, FITC-GAH Fc 2nd Ab, Raji cells (none 6.9)
CD74 (human) [25] = biological target: CD74 (human) (UniProt P04233); assay: indirect flow cytometry on Namalwa cells, FITC-GAH 2nd Ab (none 2.52)
[26] = biological target: CD74 on dog lymphoma cells (dog); assay: flow cytometry on dog lymphoma aspirate, humanized MAbs (none 4.48)
CD74 (human) [27] = biological target: CD74 (human) (UniProt P04233); assay: indirect FACS, FITC-GAH Fc 2nd Ab, Raji cells (none 6.8); number split over two cells
CD74 (human) [28] = biological target: CD74 (human) (UniProt P04233); assay: indirect FACS, FITC-GAH Fc 2nd Ab, Ramos cells (none 3.1); number split over two cells
CD74 (human) [29] = biological target: CD74 (human) (UniProt P04233); assay: indirect flow cytometry, FITC-GAH Fc 2nd Ab, Ramos cells (none 3.1)
[30] = biological target: CD22 on dog lymphoma cells (dog); assay: flow cytometry on dog lymphoma aspirate, humanized MAbs (none 3.24)
[31] = biological target: CD22 on dog lymphoma cells (dog); assay: flow cytometry on dog lymphoma aspirate, humanized MAbs (none 4.48)

Sequence of CD74 (human) (P04233 whole entry): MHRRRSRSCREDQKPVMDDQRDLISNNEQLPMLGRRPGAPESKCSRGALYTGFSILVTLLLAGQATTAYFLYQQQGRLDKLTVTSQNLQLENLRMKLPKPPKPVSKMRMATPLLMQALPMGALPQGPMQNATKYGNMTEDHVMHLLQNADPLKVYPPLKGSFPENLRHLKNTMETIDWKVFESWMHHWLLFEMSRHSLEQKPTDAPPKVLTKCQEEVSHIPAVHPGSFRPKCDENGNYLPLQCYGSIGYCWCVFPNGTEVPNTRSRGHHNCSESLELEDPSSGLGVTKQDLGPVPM

Substance: Ag8 (antibody)
GEO MEAN Fluorescence (HLA-DR (human) [5]): 3.64
% [6]: 2.81%
Mean FL [7]: 3.04

Substance: RS7 (murine) (antibody)
GEO MEAN Fluorescence (HLA-DR (human) [8]): 3.39

Substance: hRS7 (antibody)
GEO MEAN Fluorescence (HLA-DR (human) [9]): 2.47

Substance: LL2 (murine) (antibody)
% [12]: 5.05%
GEO MEAN Fluorescence (CD22 (human)): 10.5
Mean FL [13]: 3.73

Substance: hLL2 (antibody)
Mean FL [30]: 3.37
% [31]: 4.85%

More lines, now with the values ahead:

ADCC on Daudi cells, specific lysis corrected for the effect on effector cells (5 µg/ml, effector:target 50:1, 4 h) [1]: 12%
Substance: hL243γ4P (antibody)

% [2]: 6.69%
GEO MEAN Fluorescence (CD74 (human) [3]): 17.3
Mean FL [4]: 4.01
Substance: LL1 (murine) (antibody)

ADCC on Daudi cells, specific lysis corrected for the effect on effector cells (5 µg/ml, effector:target 50:1, 4 h) [1]: 48%
Substance: hL243γ1 (antibody)

% [10]: 2.61%
GEO MEAN Fluorescence (CD20 (human)): 6.16
Mean FL [11]: 3.11
Substance: m2B8 (antibody)

Geometric Mean Fluorescence (CD74 (human) [14]): 7.8
Geometric Mean Fluorescence (CD74 (human) [15]): 17.3
Geometric Mean Fluorescence (CD74 (human) [16]): 7.81
Geometric Mean Fluorescence (CD74 (human) [17]): 17.3
Geometric Mean Fluorescence (CD74 (human) [18]): 7.9
Mean FL [19]: 3.33
Geometric Mean Fluorescence (CD74 (human) [20]): 48.8
Geometric Mean Fluorescence (CD74 (human) [21]): 48.8
Geometric Mean Fluorescence (CD74 (human) [22]): 8.66
Geometric Mean Fluorescence (CD74 (human) [23]): 8.7
Geometric Mean Fluorescence (CD74 (human) [24]): 95.1
GEO MEAN Fluorescence (CD74 (human) [25]): 10.1
% [26]: 4.71%
Geometric Mean Fluorescence (CD74 (human) [27]): 95.1
Geometric Mean Fluorescence (CD74 (human) [28]): 23.2
Geometric Mean Fluorescence (CD74 (human) [29]): 23.3
Substance: hLL1 (antibody)
